# Molecular target: the molecule itself
# Experiment: single-molecule photobleaching step counting
protein,measurement,value
"HSV-1 origin binding protein UL9 labelled at its C-terminus with Atto647N through a ybbR-tag (enzyme, Herpes simplex virus type 1, UniProt P10193 1-851, looked up, Atto647N fluorophore on the C-terminus through a ybbR-tag) MPFVGGAESGDPLGAGRPIGDDECEQYTSSVSLARMLYGGDLAEWVPRVHPKTTIERQQHGPVTFPNASAPTARCVTVVRAPMGSGKTTALIRWLREAIHSPDTSVLVVSCRRSFTQTLATRFAESGLVDFVTYFSSTNYIMNDRPFHRLIVQVESLHRVGPNLLNNYDVLVLDEVMSTLGQLYSPTMQQLGRVDALMLRLLRICPRIIAMDATANAQLVDFLCGLRGEKNVHVVVGEYAMPGFSARRCLFLPRLGTELLQAALRPPGPPSGPSPDASPEARGATFFGELEARLGGGDNICIFSSTVSFAEIVARFCRQFTDRVLLLHSLTPLGDVTTWGQYRVVIYTTVVTVGLSFDPLHFDGMFAYVKPMNYGPDMVSVYQSLGRVRTLRKGELLIYMDGSGARSEPVFTPMLLNHVVSSCGQWPAQFSQVTNLLCRRFKGRCDASACDTSLGRGSRIYNKFRYKHYFERCTLACLSDSLNILHMLLTLNCIRVRFWGHDDTLTPKDFCLFLRGVHFDALRAQRDLRELRCRDPEASLPAQAAETEEVGLFVEKYLRSDVAPAEIVALMRNLNSLMGRTRFIYLALLEACLRVPMATRSSAIFRRIYDHYATGVIPTINVTGELELVALPPTLNVTPVWELLCLCSTMAARLHWDSAAGGSGRTFGPDDVLDLLTPHYDRYMQLVFELGHCNVTDGLLLSEEAVKRVADALSGCPPRGSVSETDHAVALFKIIWGELFGVQMAKSTQTFPGAGRVKNLTKQTIVGLLDAHHIDHSACRTHRQLYALLMAHKREFAGARFKLRVPAWGRCLRTHSSSANPNADIILEAALSELPTEAWPMMQGAVNFSTL",stoichiometry N,2

# — publication doi:10.1101/2024.10.30.621104 (bioRxiv, 2024)
